This is an account of results in US20240327535A1 (EISAI R AND D MANAGEMENT, published 2024).

For test [1], the target named is T1, human BCMA on NCI-H929, OPM2 and Raji cells (human, UniProt Q02223 1-184).
T1 construct: endogenous BCMA of human cell lines; also called TNFRSF17; CD269
T1 chain: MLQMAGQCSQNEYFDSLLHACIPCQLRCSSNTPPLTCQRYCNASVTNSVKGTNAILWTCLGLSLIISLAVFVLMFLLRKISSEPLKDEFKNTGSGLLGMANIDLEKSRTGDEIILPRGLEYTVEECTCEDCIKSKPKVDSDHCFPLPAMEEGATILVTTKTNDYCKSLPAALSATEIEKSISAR
Description: flow cytometry, OPM2 cells.

Test [2] deals with T1, human BCMA on NCI-H929, OPM2 and Raji …. Description: flow cytometry, Raji cells. (In general: Flow cytometry measures light scatter and fluorescence of single cells or particles in a stream.)
The target is the same in test [3]. Description: flow cytometry, NCI-H929 cells.
Test [4] has the same target. Description: flow cytometry on NCI-H929 cells (BCMA high), fluorescent anti-human IgG1 secondary antibody, MFI against antibody conc.
For test [5], the target named is T2, extracellular domain of human BCMA (human, UniProt Q02223 1-54).
T2 construct: amine-linked to Octet AR2G tips; also called hsBCMA; BCMA (human)
T2 sequence: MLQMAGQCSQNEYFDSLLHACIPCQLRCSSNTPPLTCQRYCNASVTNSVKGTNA
Description: Octet BLI; Fab 200 nM. Background: BLI is a label-free optical method that tracks binding on a fibre tip over time.

In test [6] the target is T1, human BCMA on NCI-H929, OPM2 and Raji …. Description: flow cytometry, NCI-H929 cells.
Test [7] has the same target. Description: flow cytometry on NCI-H929 cells (BCMA high), fluorescent anti-human IgG1 secondary antibody, MFI against test article concentration.
In test [8] the target is T3, extracellular domain of rhesus monkey BCMA (rhesus monkey, UniProt F7FFA0 1-53).
T3 construct: extracellular domain; also called RhBCMA
Description: Octet BLI; Fab 200 nM.

Test [9] deals with T1, human BCMA on NCI-H929, OPM2 and Raji …. Description: flow cytometry, NCI-H929 cells.
Test [10] concerns the target T2, extracellular domain of human BCMA. Description: Octet BLI; Fab 200 nM. The source holds these as a separate data set.
Test [11] has as its target T3, extracellular domain of rhesus monkey …. Description: Octet BLI; Fab 200 nM. The source holds these as a separate data set.
The target of test [12] is T2, extracellular domain of human BCMA. Description: Octet BLI; Fab 200 nM. The source holds these as a separate data set.
Test [13] concerns the target T3, extracellular domain of rhesus monkey …. Description: Octet BLI; Fab 200 nM. This is another data set of the same source.
Test [14] deals with T2, extracellular domain of human BCMA. Description: Octet BLI; Fab 200 nM. This is another data set of the same source.
Test [15] addresses T3, extracellular domain of rhesus monkey …. Description: Octet BLI; Fab 200 nM. This is another data set of the same source.
Test [16] concerns the target T2, extracellular domain of human BCMA. Description: Octet BLI; Fab 200 nM. The source holds these as a separate data set.
Test [17] addresses T3, extracellular domain of rhesus monkey …. Description: Octet BLI; Fab 200 nM. This is another data set of the same source.

Where two headings read alike, the source gives them in different places.

T3 sequence (F7FFA0 entry or part of it): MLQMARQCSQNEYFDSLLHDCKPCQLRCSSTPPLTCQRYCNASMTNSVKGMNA

B1: AB214 (antibody, human IgG1, kappa, V domains shown)
VH: QVQLVQSGAEVKKPGSSVKVSCKASGGTFSNYWIHWVRQAPGQGLEWMGATYRSQSDTYYNQKYKSRVTITADKSTSTAYMELSSLRSEDTAVYYCARGAVYHGYDVIDNWGQGTLVTVSS
VL: DIQMTQSPSSLSASVGDRVTITCRASQSISSYLNWYQQKPGKAPKLLIYATSNLQIGVPSRFSGSGSGTDFTLTISSLQPEDFATYYCQQYRRIPWTFGQGTKLEIKR
notes: IgG1 kappa
The Kd is the concentration at which binding is half-saturated. As a reminder, the EC50 (read off the curve) is the concentration that produces a half-maximal response. In the case of B1, the figures for the Kd in [1], in test [2] and in [3] were 2.12 nM, 5.66 nM and 2.84 nM, respectively. In addition, the “EC50 (read off the curve)” value in [4] was ~3 nM.

B2: AB200-(2Vk8)_R2-CDR2-hs-v2 (Fab, V domains shown)
VH: QVQLVQSGAEVKKPGSSVKVSCKASGGSFSNYWIHWVRQAPGQGLEWMGGIIPIFGTANYAQKFQGRVTITADKSTSTAYMELSSLRSEDTAVYYCARGAIFHGYDVIDNWGQGTLVTVSS
VL: DIQMTQSPSSLSASVGDRVTITCRASQSISSYINWYQQKPGKAPKLLIYATSNLQIGVPSRFSGSGSGTDFTLTISSLQPEDFATYYCQQFRKLPWSFGQGTKLEIKR
With B2, in test [5], binding was characterised by a dissociation constant (Kd) of 151 nM.

B3: AB200-mcMMAF-05 (antibody, human IgG1, kappa, V domains shown)
VH: QVQLVQSGAEVKKPGSSVKVSCKASGGTFSNYWMHWVRQAPGQGLEWMGATYRGHSDTYYNQKFKGRVTITADKSTSTAYMELSSLRSEDTAVYYCARGAIYDGYDVLDNWGQGTLVTVSS
VL: DIQMTQSPSSLSASVGDRVTITCSASQDISNYLNWYQQKPGKAPKLLIYYTSNLHSGVPSRFSGSGSGTDFTLTISSLQPEDFATYYCQQYRKLPWTFGQGTKLEIKR
modifications: mcMMAF (ADL10-MMAF) linker-payload on cysteine residues of the antibody, DAR 4.0
notes: antibody-drug conjugate; also called AB200-ADL10-MMAF
B3: in test [6], the Kd is 6 to 10 nM. The “EC50 (read off the curve)” value in [7] was ~6 nM.

B4: AB200-(2Vk8)_R2-CDR1-hs-v4 (Fab, V domains shown)
VH: QVQLVQSGAEVKKPGSSVKVSCKASGGTFSSYAISWVRQAPGQGLEWMGATYRSQSDTFYNQKFKSRVTITADKSTSTAYMELSSLRSEDTAVYYCARGAVYHGYDVIDNWGQGTLVTVSS
VL: DIQMTQSPSSLSASVGDRVTITCRASQSISSYINWYQQKPGKAPKLLIYATSNLQIGVPSRFSGSGSGTDFTLTISSLQPEDFATYYCQQFRKLPWSFGQGTKLEIKR
For the molecule B4, the results for the equilibrium dissociation constant (Kd) in test [5] and in test [8] were 591 nM and 773 nM, respectively.

B5: AB200-ADL5-D4-05 (antibody, human IgG1, kappa, V domains shown)
VH: QVQLVQSGAEVKKPGSSVKVSCKASGGTFSNYWMHWVRQAPGQGLEWMGATYRGHSDTYYNQKFKGRVTITADKSTSTAYMELSSLRSEDTAVYYCARGAIYDGYDVLDNWGQGTLVTVSS
VL: DIQMTQSPSSLSASVGDRVTITCSASQDISNYLNWYQQKPGKAPKLLIYYTSNLHSGVPSRFSGSGSGTDFTLTISSLQPEDFATYYCQQYRKLPWTFGQGTKLEIKR
modifications: ADL5-D4 linker-payload on cysteine residues of the antibody, DAR 4.39
notes: antibody-drug conjugate
Turning to B5, the Kd in test [6] is 6 to 10 nM; in [9], 9.8 nM. In addition, the “EC50 (read off the curve)” value in test [7] is ~9 nM.

B6: AB200-(2Vk44)_R2-VH-v75 (Fab, V domains shown)
VH: QVQLVQSGAEVKKPGSSVKVSCKASGGTFSNYWIHWVRQAPGQGLEWMGATYRIQSDTYYNQKYKSRVTITADKSTSTAYMELSSLRSEDTAVYYCARGAVYHGYDVIDNWGQGTLVTVSS
VL: DIQMTQSPSSLSASVGDRVTITCRASQSISSYINWYQQKPGKAPKLLIYATSNLQIGVPSRFSGSGSGTDFTLTISSLQPEDFATYYCQQYRRLPWSFGQGTKLEIKR
notes: also called AB200_VH2-75_VK2-44
With B6, the Kd in test [10] is 1.07 nM; in test [11], 5.53 nM; in [12], 0.8 nM; in [13], 5.22 nM.

B7: AB217 (antibody, human IgG1, kappa, V domains shown)
VH: QVQLVQSGAEVKKPGSSVKVSCKASGGTFTNYWIHWVRQAPGQGLEWMGATYRSHSDTYYAQKYKSRVTITADKSTSTAYMELSSLRSEDTAVYYCARGAVYHGYDVIDNWGQGTLVTVSS
VL: DIQMTQSPSSLSASVGDRVTITCRASQSISSYINWYQQKPGKAPKLLIYATSNLQSGVPSRFSGSGSGTDFTLTISSLQPEDFATYYCQQYRRIPWTFGQGTKLEIKR
notes: IgG1 kappa
As to B7, the Kd in [1] turned out to be 2.33 nM; in [2], 7.31 nM; in test [3], 3.38 nM. Besides, the “EC50 (read off the curve)” value in test [4] is ~3 nM.

B8: AB213 (antibody, human IgG1, kappa, V domains shown)
VH: QVQLVQSGAEVKKPGSSVKVSCKASGGTFTNYWIHWVRQAPGQGLEWMGGTYRSHSTTYYNQKFKSRVTITADKSTSTAYMELSSLRSEDTAVYYCARGAVYHGYDVIDNWGQGTLVTVSS
VL: DIQMTQSPSSLSASVGDRVTITCRASQSISSYLNWYQQKPGKAPKLLIYATSNLQIGVPSRFSGSGSGTDFTLTISSLQPEDFATYYCQQFRRLPWTFGQGTKLEIKR
notes: IgG1 kappa
As to B8, the Kd in test [1] came to 1.96 nM; in test [2], 8.83 nM; in test [3], 4.26 nM. Besides, the “EC50 (read off the curve)” value in test [4] is ~4 nM.

B9: AB200-(2Vk35)_R2-VH-v6 (Fab, V domains shown)
VH: QVQLVQSGAEVKKPGSSVKVSCKASGGTFTNYWIHWVRQAPGQGLEWMGATYRSHSDTYYAQKYKSRVTITADKSTSTAYMELSSLRSEDTAVYYCARGAVYHGYDVIDNWGQGTLVTVSS
VL: DIQMTQSPSSLSASVGDRVTITCRASQSISSYINWYQQKPGKAPKLLIYATSNLQSGVPSRFSGSGSGTDFTLTISSLQPEDFATYYCQQYRRIPWTFGQGTKLEIKR
notes: also called AB200_VH2-06_VK2-35
On to B9, for which the Kd in [10] is 1.66 nM; in test [11], 9.6 nM; in [14], 1.29 nM; in [15] it was 9.36 nM.

B10: AB200-(2Vk30)_R2-VH-v37 (Fab, V domains shown)
VH: QVQLVQSGAEVKKPGSSVKVSCKASGGTFSNYWIHWVRQAPGQGLEWMGATYRSQSDTYYNQKYKSRVTITADKSTSTAYMELSSLRSEDTAVYYCARGAVYHGYDVIDNWGQGTLVTVSS
VL: DIQMTQSPSSLSASVGDRVTITCRASQSISSYLNWYQQKPGKAPKLLIYATSNLQIGVPSRFSGSGSGTDFTLTISSLQPEDFATYYCQQYRRIPWTFGQGTKLEIKR
notes: also called AB200_VH2-37_VK2-30
B10: the Kd in test [10] amounted to 1.14 nM; in [11], 6.33 nM; in test [16], 0.81 nM; in test [17] it was 6.05 nM.

B11: AB215 (antibody, human IgG1, kappa, V domains shown)
VH: QVQLVQSGAEVKKPGSSVKVSCKASGGTFTNYWIHWVRQAPGQGLEWMGGTYRSHSTTYYNQKFKSRVTITADKSTSTAYMELSSLRSEDTAVYYCARGAVYHGYDVIDNWGQGTLVTVSS
VL: DIQMTQSPSSLSASVGDRVTITCRASQSISSYLNWYQQKPGKAPKLLIYATSNLQIGVPSRFSGSGSGTDFTLTISSLQPEDFATYYCQQYRRIPWTFGQGTKLEIKR
notes: IgG1 kappa
B11: the Kd in [1] was determined as 3.63 nM; in [2], 11.2 nM; in test [3] it was 8.06 nM. Further, the 50% effective concentration (EC50 (read off the curve)) in test [4] is ~7 nM.
